From paper PMC10944109
pKd: −log10 of the molar value.

Columns and labels:
[1] = target: LZ-Las17(281–633), biotinylated leucine zipper dimeric form of Las17 residues 281–633 (S. cerevisiae); experiment: supernatant depletion binding assay; biotinylated LZ-Las17(281–633) dimer on magnetic streptavidin beads (16 nM to 2.06 μM dimer for the WT isotherm; 0.6 μM dimer for mutants and CA fusions); 50 nM Arp2/3 complex in solution; 1x PC buffer plus 0.05% Tween-20; 70 min, room temperature; Arp2/3 complex left in the supernatant quantified by anti-Arp3 dot blot
[2] = target: Monomeric Las17(281–633) (S. cerevisiae) (UniProt Q12446)
[3] = target: LZ-Myo5(1146–1220), biotinylated leucine zipper dimeric form of the Myo5 CA segment (S. cerevisiae) (UniProt P03069); experiment: supernatant depletion binding assay; biotinylated LZ-Myo5–CA dimer on magnetic streptavidin beads (25 nM to 1.6 μM dimer for the WT isotherm; 0.4 μM dimer for mutants); 50 nM Arp2/3 complex in solution; 1x PC buffer plus 0.05% Tween-20; 70 min, room temperature; Arp2/3 complex left in the supernatant quantified by anti-Arp3 dot blot

With “S. cerevisiae Arp2/3 complex with ARPC1(F183A, K185D) (from UniProt P47117 1-449; P32381 1-391; P38328 1-384; P53731 1-342)” the reduction in binding compared with the WT complex [1] was 50%.
For “S. cerevisiae Arp2/3 complex with Arp2(V142A, Y146A) (from UniProt P47117 1-449; P32381 1-391; P38328 1-384; P53731 1-342)”, the reduction in binding compared with the WT complex [1] was 50%.
For “S. cerevisiae Arp2/3 complex with Arp3(R371D) (from UniProt P47117 1-449; P32381 1-391; P38328 1-384; P53731 1-342)”, the maximum polymerization rate in pyrene actin polymerization assay as percent of WT activity; 20 nM Arp2/3 complex, 3 μM 15% pyrene actin, Las17(281–633), PC buffer (% of the WT activity) [2] was 56 and the reduction in binding compared with WT Arp2/3 complex [1] was 30%.
For “S. cerevisiae Arp2/3 complex with Arp3(R403D, K404D) (from UniProt P47117 1-449; P32381 1-391; P38328 1-384; P53731 1-342)”, the maximum polymerization rate in pyrene actin polymerization assay as percent of WT activity; 20 nM Arp2/3 complex, 3 μM 15% pyrene actin, 1.5 μM monomeric Las17(281–633), PC buffer (% of the WT activity) [2] was 20.
“S. cerevisiae Arp2/3 complex with Arp3(W191A, T192A) (from UniProt P47117 1-449; P32381 1-391; P38328 1-384; P53731 1-342)” showed a maximum polymerization rate in pyrene actin polymerization assay as percent of WT activity; 20 nM Arp2/3 complex, 3 μM 15% pyrene actin, 1.5 μM monomeric Las17(281–633), PC buffer (% of the WT activity) [2] of 17.
“S. cerevisiae Arp2/3 complex with the CA segment of N-WASP fused to Arp2 (Arp2–CA fusion complex) (from UniProt P47117 1-449; P38328 1-384; P53731 1-342)” showed a percent of the complex pulled down at 0.6 μM (LZ-Las17(281–633))2 [1] of 30%.
“S. cerevisiae Arp2/3 complex with the CA segment of N-WASP fused to Arp3 (Arp3–CA fusion complex) (from UniProt P32381 1-391; P38328 1-384; P53731 1-342)” was tested, and the percent of the complex pulled down at 0.6 μM (LZ-Las17(281–633))2 [1] was 73%.
Work on “WT S. cerevisiae Arp2/3 complex (ARPC2 with C-terminal tandem 12xHis and TwinStrep tags) (from UniProt P47117 1-449; P32381 1-391; P38328 1-384; P53731 1-342)” yielded a pKd [1] of 6.80 and a pKd [3] of 6.89.
